According to CN113797333A (SHANGHAI JUNSHI BIOSCIENCES CO LTD; JUNMENG BIOSCIENCES CO …, dated 2021):
Values joined by “and” are separate entries in the source; they are usually repeats but may differ in a detail not shown here. Identical values can stand only once.

Molecular target: 全序列COVID-19刺突蛋白 (on COVID-19 pseudovirus) (COVID-19 (SARS-CoV-2), UniProt P0DTC2 14-1273)
Assay: cell-based or functional assay

B1: 人源化单克隆抗体CB6 (antibody, V domains shown)
VH: EVQLVESGGGLVQPGGSLRLSCAASGFTVSSNYMSWVRQAPGKGLEWVSVIYSGGSTFYADSVKGRFTISRDNSMNTLFLQMNSLRAEDTAVYYCARVLPMYGDYLDYWGQGTLVTVSS
VL: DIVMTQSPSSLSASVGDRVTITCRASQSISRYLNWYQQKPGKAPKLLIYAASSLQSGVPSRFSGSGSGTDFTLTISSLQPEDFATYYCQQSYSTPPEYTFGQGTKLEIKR
B1 was tested, and the “IC50 of inhibition of COVID-19 pseudovirus infection of Huh-7 cells (luciferase)” value was 0.183 nM and 0.0275 μg/ml.
